Assay results taken from patent publication US20150218238A1, “TREATING DISEASES BY MODULATING A SPECIFIC ISOFORM OF MKL1” (NOVARTIS FORSCHUNGSSTIFTUNG, ZWEIGNIEDERLASSUNG FRIEDRICH …, priority 2012, published 2015).

Test system: EcR-293 cells
Test: DNA microarray on EcR-293 cells overexpressing MKL1 isoforms
Assay type: cell-based, human
Conditions: for ACTA2 fold change vs. control / ADAM21 fold change vs. control / AMBN fold change vs. control / CNN2 fold change vs. control / DSEL fold change vs. control / ESRRG fold change vs. control / MKL1 (total) fold change vs. control / MMP16 fold change vs. control / NAP1L3 fold change vs. control / OSTN fold change vs. control / PDGFD fold change vs. control / ROCK1P1 fold change vs. control / RORB fold change vs. control / SLC8A1 fold change vs. control / SPOCK3 fold change vs. control: vs empty pcDNA3 vector
Description: DNA microarray EcR-293 cells stably transfected with 1) the empty pcDNA3 vector, 2) 5′UTR-MKL_L, 3) 5′UTR-MKL_S were grown in triplicates. For “untreated” samples, total RNA was extracted from cells in D-MEM/10% FBS. “LPA treated” cells were starved for 16 h in D-MEM/0.3% FBS and subsequently treated with 50 μm LPA for 20 min. RNA was extracted 4 h after treatment. RNA was converted into labeled cRNA and hybridized to Affymetrix Human Gene 1.0 arrays (Affymetrix, Santa Clara, Calif., USA). The procedure for the microarray analysis was as previously described (4). Differences in gene expression were calculated for 2) vs. 1), 3) vs. 1), and 3) vs. 2). • (1) Miralles F et al., Cell, Volume 113, Issue 3, May 2003, 329-342 • (2) Maier S et al., Biochimica et Biophysica Acta (BBA)—Molecular Cell Research, Volume 1783, Issue 6, June 2008, 1150-1162 • (3) Martina et al., The FASEB Journal, Volume 24, Issue 3, March 2010, 778-787 • (4) Asparuhova et al., The FASEB Journal, Volume 25, Issue 10, October 2011, 3477-3488

B1: MKL_L: published long isoform of human MKL1 (SEQ ID NO:3), stably overexpressed in EcR-293 cells from construct 5′UTR-MKL_L (protein, listed as Homo sapiens)
chain: LPPSVIAVNGMDGGGAGENDDEPVLVSLSAAPSPQSEAVANELQELSLQPELTLGLHPGRNPNLPPLSERKNVLQLKLQQRRTREELVSQGIMPPLKSPAAFHEQRRSLERARTEDYLKRKIRSRPERSELVRMHILEETSAEPSLQAKQLKLKRARLADDLNEKIAQRPGPMELVEKNILPVESSLKEAIIVGQVNYPKVADSSSFDEDSSDALSPEQPASHESQGSVPSPLEARVSEPLLSATSASPTQVVSQLPMGRDSREMLFLAEQPPLPPPPLLPPSLTNGTTIPTAKSTPTLIKQSQPKSASEKSQRSKKAKELKPKVKKLKYHQYIPPDQKQDRGAPPMDSSYAKILQQQQLFLQLQILNQQQQQHHNYQAILPAPPKSAGEALGSSGTPPVRSLSTTNSSSSSGAPGPCGLARQNSTSLTGKPGALPANLDDMKVAELKQELKLRSLPVSGTKTELIERLRAYQDQISPVPGAPKAPAATSILHKAGEVVVAFPAARLSTGPALVAAGLAPAEVVVATVASSGVVKFGSTGSTPPVSPTPSERSLLSTGDENSTPGDTFGEMVTSPLTQLTLQASPLQILVKEEGPRAGSCCLSPGGRAELEGRDKDQMLQEKDKQIEALTRMLRQKQQLVERLKLQLEQEKRAQQPAPAPAPLGTPVKQENSFSSCQLSQQPLGPAHPFNPSLAAPATNHIDPCAVAPGPPSVVVKQEALQPEPEPVPAPQLLLGPQGPSLIKGVAPPTLITDSTGTHLVLTVTNKNADSPGLSSGSPQQPSSQPGSPAPAPSAQMDLEHPLQPLFGTPTSLLKKEPPGYEEAMSQQPKQQENGSSSQQMDDLFDILIQSGEISADFKEPPSLPGKEKPSPKTVCGSPLAAQPSPSAELPQAAPPPPGSPSLPGRLEDFLESSTGLPLLTSGHDGPEPLSLIDDLHSQMLSSTAILDHPPSPMDTSELHFVPEPSSTMGLDLADGHLDSMDWLELSSGGPVLSLAPLSTTAPSLFSTDFLDGHDLQLHWDSCL
ACTA2 fold change vs. control (4 h after LPA treatment): +1.86 (7.22E−05) fold
ADAM21 fold change vs. control (4 h after LPA treatment): −1.36 (8.44E−04) fold
AMBN fold change vs. control (4 h after LPA treatment): +3.09 (3.65E−06) fold
CNN2 fold change vs. control (4 h after LPA treatment): <1.20 fold
DSEL fold change vs. control (4 h after LPA treatment): +1.56 (1.45E−04) fold
ESRRG fold change vs. control (4 h after LPA treatment): +1.71 (2.20E−07) fold
MKL1 (total) fold change vs. control (4 h after LPA treatment): +4.61 (4.29E−09) fold
MMP16 fold change vs. control (4 h after LPA treatment): +2.30 (4.46E−05) fold
NAP1L3 fold change vs. control (4 h after LPA treatment): +1.86 (1.01E−04) fold
OSTN fold change vs. control (4 h after LPA treatment): <1.20 fold
PDGFD fold change vs. control (4 h after LPA treatment): +1.50 (2.62E−05) fold
ROCK1P1 fold change vs. control (4 h after LPA treatment): <1.20 fold
RORB fold change vs. control (4 h after LPA treatment): +1.53 (5.71E−05) fold
SLC8A1 fold change vs. control (4 h after LPA treatment): +2.18 (6.58E−07) fold
SPOCK3 fold change vs. control (4 h after LPA treatment): +2.31 (1.61E−06) fold
ACTA2 fold change vs. control (untreated cells): +2.62 (5.99E−08) fold
ADAM21 fold change vs. control (untreated cells): −1.27 (1.586−02) fold
AMBN fold change vs. control (untreated cells): −1.89 (2.18E−04) fold
CNN2 fold change vs. control (untreated cells): +1.65 (2.35E−06) fold
DSEL fold change vs. control (untreated cells): +1.61 (4.36E−04) fold
ESRRG fold change vs. control (untreated cells): +2.14 (6.11E−08) fold
MKL1 (total) fold change vs. control (untreated cells): +5.68 (1.23E−12) fold
MMP16 fold change vs. control (untreated cells): +1.47 (6.97E−04) fold
NAP1L3 fold change vs. control (untreated cells): +1.54 (7.53E−04) fold
OSTN fold change vs. control (untreated cells): −2.38 (2.56E−05) fold
PDGFD fold change vs. control (untreated cells): +1.93 (7.54E−05) fold
ROCK1P1 fold change vs. control (untreated cells): <1.20 fold
RORB fold change vs. control (untreated cells): +2.27 (5.80E−08) fold
SLC8A1 fold change vs. control (untreated cells): +1.89 (1.37E−07) fold
SPOCK3 fold change vs. control (untreated cells): +1.63 (7.80E−05) fold

B2: MKL_S: novel short isoform of human MKL1 (SEQ ID NO:1), stably overexpressed in EcR-293 cells from construct 5′UTR-MKL_S (protein, listed as Homo sapiens)
chain: MTLLEPEMLMMAVQSVLQLKLQQRRTREELVSQGIMPPLKSPAAFHEQRRSLERARTEDYLKRKIRSRPERSELVRMHILEETSAEPSLQAKQLKLKRARLADDLNEKIAQRPGPMELVEKNILPVESSLKEAIIVGQVNYPKVADSSSFDEDSSDALSPEQPASHESQGSVPSPLEARVSEPLLSATSASPTQVVSQLPMGRDSREMLFLAEQPPLPPPPLLPPSLTNGTTIPTAKSTPTLIKQSQPKSASEKSQRSKKAKELKPKVKKLKYHQYIPPDQKQDRGAPPMDSSYAKILQQQQLFLQLQILNQQQQQHHNYQAILPAPPKSAGEALGSSGTPPVRSLSTTNSSSSSGAPGPCGLARQNSTSLTGKPGALPANLDDMKVAELKQELKLRSLPVSGTKTELIERLRAYQDQISPVPGAPKAPAATSILHKAGEVVVAFPAARLSTGPALVAAGLAPAEVVVATVASSGVVKFGSTGSTPPVSPTPSERSLLSTGDENSTPGDTFGEMVTSPLTQLTLQASPLQILVKEEGPRAGSCCLSPGGRAELEGRDKDQMLQEKDKQIEALTRMLRQKQQLVERLKLQLEQEKRAQQPAPAPAPLGTPVKQENSFSSCQLSQQPLGPAHPFNPSLAAPATNHIDPCAVAPGPPSVVVKQEALQPEPEPVPAPQLLLGPQGPSLIKGVAPPTLITDSTGTHLVLTVTNKNADSPGLSSGSPQQPSSQPGSPAPAPSAQMDLEHPLQPLFGTPTSLLKKEPPGYEEAMSQQPKQQENGSSSQQMDDLFDILIQSGEISADFKEPPSLPGKEKPSPKTVCGSPLAAQPSPSAELPQAAPPPPGSPSLPGRLEDFLESSTGLPLLTSGHDGPEPLSLIDDLHSQMLSSTAILDHPPSPMDTSELHFVPEPSSTMGLDLADGHLDSMDWLELSSGGPVLSLAPLSTTAPSLFSTDFLDGHDLQLHWDSCL
ACTA2 fold change MKL_S vs. MKL_L (4 h after LPA treatment): <1.20 fold
ADAM21 fold change MKL_S vs. MKL_L (4 h after LPA treatment): +1.65 (2.95E−05) fold
AMBN fold change MKL_S vs. MKL_L (4 h after LPA treatment): +1.67 (1.04E−03) fold
CNN2 fold change MKL_S vs. MKL_L (4 h after LPA treatment): +1.44 (1.06E−06) fold
DSEL fold change MKL_S vs. MKL_L (4 h after LPA treatment): +1.50 (2.87E−04) fold
ESRRG fold change MKL_S vs. MKL_L (4 h after LPA treatment): <1.20 fold
MKL1 (total) fold change MKL_S vs. MKL_L (4 h after LPA treatment): −1.91 (3.79E−06) fold
MMP16 fold change MKL_S vs. MKL_L (4 h after LPA treatment): +2.54 (1.95E−05) fold
NAP1L3 fold change MKL_S vs. MKL_L (4 h after LPA treatment): +1.49 (1.82E−03) fold
OSTN fold change MKL_S vs. MKL_L (4 h after LPA treatment): +1.92 (1.57E−04) fold
PDGFD fold change MKL_S vs. MKL_L (4 h after LPA treatment): <1.20 fold
ROCK1P1 fold change MKL_S vs. MKL_L (4 h after LPA treatment): +1.60 (1.99E−03) fold
RORB fold change MKL_S vs. MKL_L (4 h after LPA treatment): <1.20 fold
SLC8A1 fold change MKL_S vs. MKL_L (4 h after LPA treatment): −1.31 (1.42E−03) fold
SPOCK3 fold change MKL_S vs. MKL_L (4 h after LPA treatment): 2.18 (2.70E−06) fold
ACTA2 fold change MKL_S vs. MKL_L (untreated cells): <1.20 fold
ADAM21 fold change MKL_S vs. MKL_L (untreated cells): <1.20 fold
AMBN fold change MKL_S vs. MKL_L (untreated cells): +1.73 (5.61E−04) fold
CNN2 fold change MKL_S vs. MKL_L (untreated cells): +1.53 (7.48E−06) fold
DSEL fold change MKL_S vs. MKL_L (untreated cells): +1.51 (1.13E−03) fold
ESRRG fold change MKL_S vs. MKL_L (untreated cells): <1.20 fold
MKL1 (total) fold change MKL_S vs. MKL_L (untreated cells): −1.54 (8.11E−08) fold
MMP16 fold change MKL_S vs. MKL_L (untreated cells): +2.03 (9.27E−06) fold
NAP1L3 fold change MKL_S vs. MKL_L (untreated cells): +1.75 (1.30E−04) fold
OSTN fold change MKL_S vs. MKL_L (untreated cells): +1.90 (2.17E−04) fold
PDGFD fold change MKL_S vs. MKL_L (untreated cells): <1.20 fold
ROCK1P1 fold change MKL_S vs. MKL_L (untreated cells): <1.20 fold
RORB fold change MKL_S vs. MKL_L (untreated cells): <1.20 fold
SLC8A1 fold change MKL_S vs. MKL_L (untreated cells): <1.20 fold
SPOCK3 fold change MKL_S vs. MKL_L (untreated cells): +1.97 (6.82E−06) fold
ACTA2 fold change vs. control (4 h after LPA treatment): +2.02 (2.99E−05) fold
ADAM21 fold change vs. control (4 h after LPA treatment): +1.38 (3.69E−06) fold
AMBN fold change vs. control (4 h after LPA treatment): +5.14 (1.97E−07) fold
CNN2 fold change vs. control (4 h after LPA treatment): +1.67 (6.37E−08) fold
DSEL fold change vs. control (4 h after LPA treatment): +2.33 (1.17E−06) fold
ESRRG fold change vs. control (4 h after LPA treatment): +1.93 (4.52E−08) fold
MKL1 (total) fold change vs. control (4 h after LPA treatment): +2.41 (3.56E−07) fold
MMP16 fold change vs. control (4 h after LPA treatment): +5.86 (1.39E−07) fold
NAP1L3 fold change vs. control (4 h after LPA treatment): +2.78 (2.44E−06) fold
OSTN fold change vs. control (4 h after LPA treatment): +2.23 (3.48E−05) fold
PDGFD fold change vs. control (4 h after LPA treatment): +1.61 (8.28E−06) fold
ROCK1P1 fold change vs. control (4 h after LPA treatment): +1.53 (3.63E−03) fold
RORB fold change vs. control (4 h after LPA treatment): +1.46 (1.34E−04) fold
SLC8A1 fold change vs. control (4 h after LPA treatment): +1.67 (1.71E−05) fold
SPOCK3 fold change vs. control (4 h after LPA treatment): +5.04 (8.54E−09) fold
ACTA2 fold change vs. control (untreated cells): +2.30 (1.88E−07) fold
ADAM21 fold change vs. control (untreated cells): −1.21 (1.63E−02) fold
AMBN fold change vs. control (untreated cells): <1.20 fold
CNN2 fold change vs. control (untreated cells): +2.53 (1.91E−08) fold
DSEL fold change vs. control (untreated cells): +2.43 (5.20E−06) fold
ESRRG fold change vs. control (untreated cells): +2.37 (2.34E−08) fold
MKL1 (total) fold change vs. control (untreated cells): +3.70 (1.19E−11) fold
MMP16 fold change vs. control (untreated cells): +2.98 (3.46E−07) fold
NAP1L3 fold change vs. control (untreated cells): +2.68 (1.98E−06) fold
OSTN fold change vs. control (untreated cells): <1.20 fold
PDGFD fold change vs. control (untreated cells): +2.01 (4.75E−05) fold
ROCK1P1 fold change vs. control (untreated cells): <1.20 fold
RORB fold change vs. control (untreated cells): +1.96 (2.76E−07) fold
SLC8A1 fold change vs. control (untreated cells): +1.70 (5.75E−07) fold
SPOCK3 fold change vs. control (untreated cells): +3.21 (1.08E−07) fold
